Measurements as given in patent US20120231005A1 (Merck Sharp & Dohme, published 2012).

What was measured:
rhesus PCSK9 (rhesus) [1] = assay: cell-based or functional assay
human PCSK9 [2] = target: T1, human PCSK9 (human, UniProt Q8NBP7 31-692, limits assumed); assay: cell-based or functional assay
rhesus PCSK9 (rhesus) [3] = assay: SPR (Biacore); IgG captured on anti-human IgG, PCSK9 injected
human PCSK9 [4] = target: T1, human PCSK9; assay: as above
Description: (§1) The affinities of those IgG molecules were also measured by Biacore assay. Briefly, anti-human IgG monoclonal antibody form Human Antibody Capture Kit provided by Biacore was immobilized on CM5 chips at a level of 8000 to 10000 RU. […] After each round injection, the sensor chip surface was regenerated by 30 second injection of 3M Magnesium Chloride.

human PCSK9 [5] = target: T1, human PCSK9; assay: SPR (Biacore); Fab captured on anti-Fab IgG, PCSK9 injected; 1:1 Langmuir fit
Description: First, goat anti-Fab IgGs were immobilized onto CM5 chip by amine coupling as described above. The anti-Fab IgGs were diluted to 200 μg/ml in pH 5/10 mM Acetate solution, and injected onto the NHS/EDC activated surface to achieve an immobilization level of ˜10,000 RU, followed with surface inactivation by injection of Ethanolamine. […] The sensor chip surface was regenerated by 30 second injection of 100 mM phosphoric acid. The binding sensorgrams were fitted with 1:1 Langmuir binding model to determine the binding affinity.

rhesus PCSK9 (rhesus) [6] = assay: affinity table, IgG2 (Biacore)
human PCSK9 [7] = target: T1, human PCSK9; assay: affinity table, IgG2 (Biacore)
Description: as §1

human PCSK9 [8] = target: T1, human PCSK9; assay: TR-FRET; antibody titrated against 10 nM AF647-PCSK9 and about 4 nM Eu-LDLR ectodomain
Description: After at least 90 minutes of equilibration, samples were read in a Rubystar reader (BMG Corp.) using 20 flashes per well, a 50 μsec integration delay, and a 200 μsec total integration time.

human FcRn = target: T2, human FcRn (human, UniProt P55899 24-297; P61769 21-119, limits assumed); assay: Biacore; human FcRn immobilised, 100 nM mAb bound at pH 6.0, read 5 s into dissociation at pH 7.3
T2 construct: Beta-2-microglobulin is not mentioned for the purified protein; also called human FeRn
Description: The neutral pH dissociation of mAbs from human FeRn was measured by SPR using a Biacore T-100 instrument. Briefly, purified FeRn protein was immobilized onto a Biacore CM5 biosensor chip and PBSP (50 mM NaPO4, 150 mM NaCl and 0.05% (v/v) Surfactant 20) pH 7.3 was used as running buffer. The mAbs were diluted with PBSP pH 6.0 to 100 nM, allowed to bind FcRn for 3 minutes to reach equilibrium and followed by 1 minute of dissociation in pH 7.3 running buffer. A report point (Stability) was inserted at 5 seconds after the end of mAb binding and the “% bound” was calculated as RUStability/RUBinding (%).

mouse PCSK9 = target: T3, mouse PCSK9 (mouse, UniProt Q80W65 35-694, limits assumed); assay: affinity table, IgG2 (Biacore)
T3 construct: also called Mouse PCSK9 9
T3 sequence (Q80W65 35-694 limits assumed): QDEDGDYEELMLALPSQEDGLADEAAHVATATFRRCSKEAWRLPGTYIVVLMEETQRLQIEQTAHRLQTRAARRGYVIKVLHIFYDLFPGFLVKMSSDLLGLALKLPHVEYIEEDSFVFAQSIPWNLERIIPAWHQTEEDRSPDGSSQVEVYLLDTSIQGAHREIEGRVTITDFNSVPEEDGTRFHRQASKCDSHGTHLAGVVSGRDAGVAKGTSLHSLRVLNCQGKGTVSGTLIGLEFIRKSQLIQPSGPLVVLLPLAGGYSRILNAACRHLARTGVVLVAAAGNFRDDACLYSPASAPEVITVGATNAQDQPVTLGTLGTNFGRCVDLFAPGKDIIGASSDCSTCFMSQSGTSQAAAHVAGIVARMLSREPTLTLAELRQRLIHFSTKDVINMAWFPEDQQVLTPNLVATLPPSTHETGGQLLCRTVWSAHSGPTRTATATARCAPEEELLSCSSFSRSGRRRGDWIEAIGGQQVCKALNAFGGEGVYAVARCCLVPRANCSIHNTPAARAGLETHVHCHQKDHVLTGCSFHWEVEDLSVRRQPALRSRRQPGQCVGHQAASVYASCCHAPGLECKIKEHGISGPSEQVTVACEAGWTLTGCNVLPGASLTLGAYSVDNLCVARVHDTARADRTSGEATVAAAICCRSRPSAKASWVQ
Description: as §1

rat PCSK9 = target: T4, rat PCSK9 (rat, UniProt P59996 31-691, limits assumed); assay: affinity table, IgG2 (Biacore)
T4 construct: also called rPCSK9
T4 sequence (P59996 31-691 limits assumed): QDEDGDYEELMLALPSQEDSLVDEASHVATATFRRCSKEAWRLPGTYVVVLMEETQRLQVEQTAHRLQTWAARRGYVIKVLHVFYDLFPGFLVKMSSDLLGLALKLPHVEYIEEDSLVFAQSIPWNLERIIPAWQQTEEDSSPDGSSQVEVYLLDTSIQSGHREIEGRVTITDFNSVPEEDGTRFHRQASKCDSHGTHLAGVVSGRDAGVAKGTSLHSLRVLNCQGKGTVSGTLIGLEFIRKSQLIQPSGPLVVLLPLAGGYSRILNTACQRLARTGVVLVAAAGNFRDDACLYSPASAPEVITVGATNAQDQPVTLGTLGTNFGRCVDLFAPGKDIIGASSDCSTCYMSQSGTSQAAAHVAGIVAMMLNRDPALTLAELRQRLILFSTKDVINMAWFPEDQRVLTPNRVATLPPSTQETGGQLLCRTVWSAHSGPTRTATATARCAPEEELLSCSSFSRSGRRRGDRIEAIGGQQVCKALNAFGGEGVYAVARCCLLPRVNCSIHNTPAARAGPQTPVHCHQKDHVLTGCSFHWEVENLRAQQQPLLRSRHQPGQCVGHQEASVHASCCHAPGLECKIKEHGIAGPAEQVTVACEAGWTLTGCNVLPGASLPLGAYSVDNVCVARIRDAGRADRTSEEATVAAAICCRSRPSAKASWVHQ
Description: as §1

T1 sequence (Q8NBP7 31-692 limits assumed): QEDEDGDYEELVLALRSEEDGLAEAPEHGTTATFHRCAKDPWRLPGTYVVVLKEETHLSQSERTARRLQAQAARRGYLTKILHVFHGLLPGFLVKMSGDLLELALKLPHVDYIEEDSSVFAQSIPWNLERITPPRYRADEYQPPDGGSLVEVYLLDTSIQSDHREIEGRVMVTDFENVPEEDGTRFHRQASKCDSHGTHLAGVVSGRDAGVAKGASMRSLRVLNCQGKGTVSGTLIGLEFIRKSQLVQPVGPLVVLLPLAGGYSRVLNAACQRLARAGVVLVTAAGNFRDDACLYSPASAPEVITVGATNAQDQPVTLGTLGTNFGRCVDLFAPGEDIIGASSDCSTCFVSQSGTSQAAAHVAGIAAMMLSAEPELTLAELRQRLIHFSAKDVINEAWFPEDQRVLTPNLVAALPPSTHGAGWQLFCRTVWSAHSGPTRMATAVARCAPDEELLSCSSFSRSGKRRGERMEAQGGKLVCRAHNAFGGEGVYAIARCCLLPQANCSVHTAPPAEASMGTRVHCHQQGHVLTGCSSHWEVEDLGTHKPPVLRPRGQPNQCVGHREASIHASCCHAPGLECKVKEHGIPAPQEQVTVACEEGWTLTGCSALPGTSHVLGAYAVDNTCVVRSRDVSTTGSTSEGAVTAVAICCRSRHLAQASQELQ

| IgG IC50 (nM), inhibition of PCSK9 on LDL uptake (Exopolar assay) (rhesus PCSK9 (rhesus) [1]) [nM] | IgG IC50 (nM), inhibition of PCSK9 on LDL uptake (Exopolar assay) (human PCSK9 [2]) [nM] | Kd (rhesus PCSK9 (rhesus) [3]) [nM] | Kd (human PCSK9 [4]) [nM] | Kd (rhesus PCSK9 (rhesus) [6]) [nM] | Kd (human PCSK9 [7]) [nM] | Binder | further results |
| --- | --- | --- | --- | --- | --- | --- | --- |
|  | 5 | 1.96 | 2.12 |  |  | AX422 IgG2 (antibody, V domains shown, also called AX422 (55N to S)) VH: EVQLLESGGGLVQPGGSLRLSCKASGYTFSSYWMHWVRQAPGKGLEWIGRIDPYSGGTKYNEKFKGKATISRDNSKNTLYLQMNSLRAEDTAVYYCARYGYYLGSYAMDYWGQGTLVTVSS VL: DIQMTQSPSSLSASVGDRVTITCRASQDVSRYLTWYQQKPGKAPKLLIYAASSLQSGVPSRFSGSGSGTDFTLTISSLQPEDFATYYCQAYDYSLSGYVFGGGTKVEIKR |  |
|  | 6 | 2.36 | 2.16 |  |  | AX424 IgG2 (antibody, V domains shown, also called AX424 (55N to T)) VH: EVQLLESGGGLVQPGGSLRLSCKASGYTFSSYWMHWVRQAPGKGLEWIGRIDPYTGGTKYNEKFKGKATISRDNSKNTLYLQMNSLRAEDTAVYYCARYGYYLGSYAMDYWGQGTLVTVSS VL: DIQMTQSPSSLSASVGDRVTITCRASQDVSRYLTWYQQKPGKAPKLLIYAASSLQSGVPSRFSGSGSGTDFTLTISSLQPEDFATYYCQAYDYSLSGYVFGGGTKVEIKR |  |
| 6.6 | 8.7 | 0.625 | 0.846 |  |  | AX191 IgG2 (antibody, IgG2) heavy: EVQLLESGGGLVQPGGSLRLSCKASGYTFSSYWMHWVRQAPGKGLEWIGRIDPYNGGTKYNEKFKGKATISRDNSKNTLYLQMNSLRAEDTAVYYCARYGYYLGSYAMDYWGQGTLVTVSSASTKGPSVFPLAPCSRSTSESTAALGCLVKDYFPEPVTVSWNSGALTSGVHTFPAVLQSSGLYSLSSVVTVPSSNFGTQTYTCNVDHKPSNTKVDKTVERKCCVECPPCPAPPVAGPSVFLFPPKPKDTLMISRTPEVTCVVVDVSHEDPEVQFNWYVDGVEVHNAKTKPREEQFNSTFRVVSVLTVVHQDWLNGKEYKCKVSNKGLPAPIEKTISKTKGQPREPQVYTLPPSREEMTKNQVSLTCLVKGFYPSDIAVEWESNGQPENNYKTTPPMLDSDGSFFLYSKLTVDKSRWQQGNVFSCSVMHEALHNHYTQKSLSLSPGK light: DIQMTQSPSSLSASVGDRVTITCRASQDISKYLAWYQQKPGKAPKLLIYAASSLQSGVPSRFSGSGSGTDFTLTISSLQPEDFATYYCQAYDYSSSAYVFGGGTKVEIKRTVAAPSVFIFPPSDEQLKSGTASVVCLLNNFYPREAKVQWKVDNALQSGNSQESVTEQDSKDSTYSLSSTLTLSKADYEKHKVYACEVTHQGLSSPVTKSFNRGEC | IC50 (human PCSK9 [8]): 3 nM; % bound (RUStability/RUBinding) (human FcRn): 1.1% |

The next lines start with the binder.

| Binder | IgG IC50 (nM), inhibition of PCSK9 on LDL uptake (Exopolar assay) (rhesus PCSK9 (rhesus) [1]) [nM] | IgG IC50 (nM), inhibition of PCSK9 on LDL uptake (Exopolar assay) (human PCSK9 [2]) [nM] | Kd (rhesus PCSK9 (rhesus) [3]) [nM] | Kd (human PCSK9 [4]) [nM] | Kd (rhesus PCSK9 (rhesus) [6]) [nM] | Kd (human PCSK9 [7]) [nM] | further results |
| --- | --- | --- | --- | --- | --- | --- | --- |
| AX188 IgG2 (antibody, V domains shown, IgG2) VH: EVQLLESGGGLVQPGGSLRLSCKASGYTFSSYWMHWVRQAPGKGLEWIGRIDPYNGGTKYNEKFKGKATISRDNSKNTLYLQMNSLRAEDTAVYYCARYGYYLGSYAMDYWGQGTLVTVSS VL: DIQMTQSPSSLSASVGDRVTITCRASQSVSRYLAWYQQKPGKAPKLLIYAASSLQSGVPSRFSGSGSGTDFTLTISSLQPEDFATYYCEAYDYSSGPWVFGGGTKVEIKR | 18.7 | 24.8 | 0.454 | 0.873 |  |  |  |
| AX191 Fab (Fab, V domains shown) VH: EVQLLESGGGLVQPGGSLRLSCKASGYTFSSYWMHWVRQAPGKGLEWIGRIDPYNGGTKYNEKFKGKATISRDNSKNTLYLQMNSLRAEDTAVYYCARYGYYLGSYAMDYWGQGTLVTVSS VL: DIQMTQSPSSLSASVGDRVTITCRASQDISKYLAWYQQKPGKAPKLLIYAASSLQSGVPSRFSGSGSGTDFTLTISSLQPEDFATYYCQAYDYSSSAYVFGGGTKVEIK |  |  |  |  |  |  | Fab IC50 (nM), inhibition of PCSK9 on LDL uptake (Exopolar assay) (human PCSK9 [2]): 13 nM; Kd (human PCSK9 [5]): 5.2 nM |
| AX189 Fab (Fab, V domains shown, The heavy chain is the Fd chain) VH: EVQLLESGGGLVQPGGSLRLSCKASGYTFSSYWMHWVRQAPGKGLEWIGRIDPYNGGTKYNEKFKGKATISRDNSKNTLYLQMNSLRAEDTAVYYCARYGYYLGSYAMDYWGQGTLVTVSS VL: DIQMTQSPSSLSASVGDRVTITCRASQDVSRYLTWYQQKPGKAPKLLIYAASSLQSGVPSRFSGSGSGTDFTLTISSLQPEDFATYYCQAYDYSLSGYVFGGGTKVEIKR |  |  |  |  |  |  | Fab IC50 (nM), inhibition of PCSK9 on LDL uptake (Exopolar assay) (human PCSK9 [2]): 31 nM; Kd (human PCSK9 [5]): 6.3 nM |
| AX189 IgG2 (antibody, the leaderless entry is used) heavy: EVQLLESGGGLVQPGGSLRLSCKASGYTFSSYWMHWVRQAPGKGLEWIGRIDPYNGGTKYNEKFKGKATISRDNSKNTLYLQMNSLRAEDTAVYYCARYGYYLGSYAMDYWGQGTLVTVSSASTKGPSVFPLAPCSRSTSESTAALGCLVKDYFPEPVTVSWNSGALTSGVHTFPAVLQSSGLYSLSSVVTVPSSNFGTQTYTCNVDHKPSNTKVDKTVERKCCVECPPCPAPPVAGPSVFLFPPKPKDTLMISRTPEVTCVVVDVSHEDPEVQFNWYVDGVEVHNAKTKPREEQFNSTFRVVSVLTVVHQDWLNGKEYKCKVSNKGLPAPIEKTISKTKGQPREPQVYTLPPSREEMTKNQVSLTCLVKGFYPSDIAVEWESNGQPENNYKTTPPMLDSDGSFFLYSKLTVDKSRWQQGNVFSCSVMHEALHNHYTQKSLSLSPGK light: DIQMTQSPSSLSASVGDRVTITCRASQDVSRYLTWYQQKPGKAPKLLIYAASSLQSGVPSRFSGSGSGTDFTLTISSLQPEDFATYYCQAYDYSLSGYVFGGGTKVEIKRTVAAPSVFIFPPSDEQLKSGTASVVCLLNNFYPREAKVQWKVDNALQSGNSQESVTEQDSKDSTYSLSSTLTLSKADYEKHKVYACEVTHQGLSSPVTKSFNRGEC | 9 | 9.4 | 1.24 | 1.84 | 1.24 | 1.84 | IC50 (human PCSK9 [8]): 6.4 nM; % bound (RUStability/RUBinding) (human FcRn): 0.9% |
| AX114 IgG2 (antibody, V domains shown) VH: EVQLLESGGGLVQPGGSLRLSCKASGYTFSSYGMYWVRQAPGKGLEWIGWIDPGSGGTKYNEKFKGKATISRDNSKNTLYLQMNSLRAEDTAVYYCARERYGYYFDYWGQGTLVTVSS VL: EIVLTQSPATLSLSPGERATITCRASQYVGTYLNWYQQKPGQAPRLLIYDASNRATGIPARFSGSGSGTDFTLTISSLEPEDFAVYYCQVWDSSPPVAFGGGTKVEIK |  |  |  |  | 11.6 | 24 | Kd (mouse PCSK9): 11.2 nM |
| AX132 IgG2 (antibody, from another filing, V domains shown) VH: EVQLLESGGGLVQPGGSLRLSCKASGYTFSSYGMYWVRQAPGKGLEWIGWIDPGSGGTKYNEKFKGKATISRDNSKNTLYLQMNSLRAEDTAVYYCARERYGYYFDYWGQGTLVTVSS VL: EIVLTQSPATLSLSPGERATITCRASQYVGSYLNWYQQKPGQAPRLLIYDASNRATGIPARFSGSGSGTDFTLTISSLEPEDFAVYYCQVWDSSPPVVFGGGTKVEIKR |  |  |  |  | 2.59 |  |  |
| AX132 IgG2 (antibody, V domains shown) VH: EVQLLESGGGLVQPGGSLRLSCKASGYTFSSYGMYWVRQAPGKGLEWIGWIDPGSGGTKYNEKFKGKATISRDNSKNTLYLQMNSLRAEDTAVYYCARERYGYYFDYWGQGTLVTVSS VL: EIVLTQSPATLSLSPGERATITCRASQYVGSYLNWYQQKPGQAPRLLIYDASNRATGIPARFSGSGSGTDFTLTISSLEPEDFAVYYCQVWDSSPPVVFGGGTKVEIK |  |  |  |  |  | 6.16 | Kd (mouse PCSK9): 2.76 nM; Kd (rat PCSK9): 100 nM |
